± gives the uncertainty stated by the source.
Test: self-splicing fitness, log relative to wild type (ln ratio); higher = more splicing; Tetrahymena group I intron in knt gene, E. coli kanamycin selection, DiMSum; sequences stand for … in CUCUCU…GGAGGGAAAAGUUAUCAGGCAUGCACCUGGUAGCUAGUCUUUAAACCAAUAGAUUGCAUCGGUUUAAAAGGCAAGACCGUCAAAUUGCGGGAAAGGGGUCAACAGCCGUUCAGUACCAAGUCUCAGGGGAAACUUUGAGAUGGCCUUGCAAAGGGUAUGGUAAUAAGCUGACGGACAUGGUCCUAACCACGCAGCCAAGUCCUAAGUCAACAGAUCUUCUGUUGAUAUGGAUGCAGUUCACAGACUAAAUGUCGGUCGGGGAAGAUGUAUUCUUCUCAUAAGAUAUAGUCGGACCUCUCCUUAAUGGGAGCUAGCGGAUGAAGUGAUGCAACACUGGAGCCGCUGGGAACUAAUUUGUAUGCGAAAGUAUAUUGAUUAGUUUUGGAGUACUCGUGGUCG
Method in brief: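 Library with all eight P1ex-region intron nucleotides randomised, intron inside the knt kanamycin-resistance gene on pET-22b(+), in E. coli BL21(DE3). Cells grew overnight at 37°C or 30°C on LB agar with or without 25 μg/mL kanamycin (plus 100 μg/mL carbenicillin, 50 μM IPTG, 0.2% rhamnose), in six replicate transformations. Pooled colonies were amplicon-sequenced on Illumina HiSeq 2500. DiMSum fitness is the error-weighted combination of wild-type-normalised replicate fold changes, kanamycin versus none.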

Sequence	self-splicing fitness (ln) (30 °C)	self-splicing fitness (ln) (37 °C)
AAUAAGCAAUAUUACGUCGA	-1.38 ± 0.099	-0.488 ± 0.12
AAUAAGCAAUAUUACGUCUG	-1.59 ± 0.11	-0.973 ± 0.11
AAUAAGCAAUAUUACGUGAA	-2.46 ± 0.16	-0.674 ± 0.13
AAUAAGCAAUAUUACGUUCC	-1.96 ± 0.14	-1.48 ± 0.18
AAUAAGCAAUAUUACGUUGC	-3.52 ± 0.19	-2.53 ± 0.2
AAUAAGCAAUAUUACGUUUA	-2.05 ± 0.084	-1.3 ± 0.096
AAUCAGCAAUAUUACGAAAU	-0.801 ± 0.066	0.368 ± 0.092
AAUCAGCAAUAUUACGACAA	-0.758 ± 0.12	0.189 ± 0.14
AAUCAGCAAUAUUACGAGUG	-0.769 ± 0.053	-0.281 ± 0.08
AAUCAGCAAUAUUACGAUCG	-0.0405 ± 0.063	0.448 ± 0.084
AAUCAGCAAUAUUACGCCUU	0.109 ± 0.082	0.0213 ± 0.1
AAUCAGCAAUAUUACGCGCC	-0.953 ± 0.12	-0.532 ± 0.13
AAUCAGCAAUAUUACGCUCC	-1.54 ± 0.14	-0.129 ± 0.11
AAUCAGCAAUAUUACGCUUU	-0.193 ± 0.067	0.378 ± 0.1
AAUCAGCAAUAUUACGGCGG	-1.05 ± 0.1	0.206 ± 0.14
AAUCAGCAAUAUUACGGGUA	-0.368 ± 0.071	0.17 ± 0.081
AAUCAGCAAUAUUACGGGUU	-2.48 ± 0.12	-2.02 ± 0.13
AAUCAGCAAUAUUACGGUGC	-0.892 ± 0.072	-0.189 ± 0.082
AAUCAGCAAUAUUACGGUGG	-1.14 ± 0.056	-0.718 ± 0.076

Sequence	self-splicing fitness (ln) (30 °C)	self-splicing fitness (ln) (37 °C)
AAUCAGCAAUAUUACGUAUA	-0.574 ± 0.066	0.0946 ± 0.087
AAUCAGCAAUAUUACGUAUU	-1.17 ± 0.053	-0.697 ± 0.061
AAUCAGCAAUAUUACGUGCU	-3.39 ± 0.17	-2.56 ± 0.17
AAUCAGCAAUAUUACGUUUG	-2.11 ± 0.092	-1.94 ± 0.13
AAUGAGCAAUAUUACGAAUU	-2.71 ± 0.28	-2.3 ± 0.39
AAUGAGCAAUAUUACGACCU	-0.757 ± 0.24	-0.257 ± 0.41
AAUGAGCAAUAUUACGACUU	-0.422 ± 0.091	0.263 ± 0.1
AAUGAGCAAUAUUACGAGCG	-3.49 ± 0.38	-1.56 ± 0.3
AAUGAGCAAUAUUACGAGGA	-2.86 ± 0.36	-2.08 ± 0.36
AAUGAGCAAUAUUACGAUAC	-4 ± 0.33	
AAUGAGCAAUAUUACGAUUG	-1.99 ± 0.38	-1.14 ± 0.26
AAUGAGCAAUAUUACGCAAU	-2.49 ± 0.23	-2.25 ± 0.25
AAUGAGCAAUAUUACGCAUA	-2.52 ± 0.19	-2.42 ± 0.24
AAUGAGCAAUAUUACGCUGG	-3.22 ± 0.2	-2.08 ± 0.25
AAUGAGCAAUAUUACGGCGG	-4.11 ± 0.34	-2.69 ± 0.29
AAUGAGCAAUAUUACGGCGU	-1.43 ± 0.07	-0.25 ± 0.097
AAUGAGCAAUAUUACGGGAG	-2.87 ± 0.23	-3.53 ± 0.42
AAUGAGCAAUAUUACGGGUU	-2.36 ± 0.14	-2.13 ± 0.2
AAUGAGCAAUAUUACGUACC		-2.85 ± 0.27

From the supplement of paper PMC7877785
